Measured values published in patent US20130280259A1, “USE OF ANTIBODIES AGAINST NK1, NK2 AND/OR NK3 RECEPTORS IN CANCER TREATMENT” (SERVICIO ANDALUZ DE SALUD, priority 2010, published 2013).
One block for each molecule: values may come before it.

How the values were obtained:
NK1 receptor (human) = NK1 receptor (human) (UniProt P25103); test: cell-based or functional assay
[1] = test system: primary human fibroblasts (PHF); test: Immunohistochemistry of tumour microenvironment markers in primary human fibroblasts; format: cell-based
Experimental: A sample of each of the cultures of the cell lines was centrifuged (5 minutes at 1,500 rpm) and the pellet obtained was dehydrated by treatment at growing concentrations of ethanol and finally in xylol. Then these dehydrated samples were included in paraffin creating a block of cells. These paraffin blocks were cut in a microtome at a thickness of 5 micra and deparaffinised by sinking in xylol, to be subsequently hydrated through a number of solutions containing decreasing concentrations of ethanol and be finally sank in water. Then, these samples were subject to treatment in a pressure cooker in citrate buffer 10× at pH 6.0, to obtain a higher exposure of antigens. Subsequently, the samples were cooled at room temperature for 10 minutes. The endogenous peroxidase activity was blocked with 3% hydrogen peroxide for 30 minutes at room temperature. After washing the samples with 0.05 M of Tris buffer, they were incubated with swine non-immune serum at 10% for 30 minutes at room temperature. […]
PHF were obtained and purified from samples obtained from the skin dermis as described in De Bari et al. (De Bari et al., 2001). In brief, small pieces of skin dermis were digested in a hyaluronidase solution (Sigma-Aldrich, St. Louis, Mo., US) at a concentration of 1 mg/mL for 15 minutes at 37° C. and subsequently treated with 6 mg/mL of type IV collagenase (Invitrogen) for 2 hours at 37° C. Then the cells were washed, resuspended in DMEM culture medium with a high concentration of glucose (Dulbecco's Modified Eagle's Medium, Invitrogen) supplemented with 1% of antibiotics-antimicotics (Invitrogen) and with 1% of sodium pyruvate (Invitrogen), and sown in 6-well culture plaques at a concentration of 10,000 cells per square centimetre. When the cells reached confluence, the adherent cells were separated using 0.5% sterile trypsin (Invitrogen) and were used between runs 3 and 9. For stimulation of substance P and exposure to anti-NK1, anti-NK2 and anti-NK3 antibodies, PHF were sown in 24-well plaques at a concentration of 25,000 cells per well.
For the purpose of analysing the expression of these cell markers in PHF cultures in the presence of the NK1, NK2 and NK3 receptor agonist and in the presence of anti-NK1, NK2 or NK3 antibodies, these cells were cultured in the presence of substance P (NK1, NK2 and NK3 receptor agonist) at a concentration of 1 μM (product no. S6883; Sigma-Aldrich). In other wells and simultaneously these cells were cultured with substance P at the same concentration and simultaneously together with anti-NK1, anti-NK2 or anti-NK3 antibodies (Sigma-Aldrich) at a 1/100 concentration. After 48 hours of culture, the cells were recollected and cell blocks were built for immunohistochemistry assays, as explained in example 1. In the immunohistochemistry assays, the expression of the following markers was assayed: TGF-alpha (SAB4502953), TGF-beta 1 (SAB4502954), TGF-beta 2 (SAB4502956), TGF-beta 3 (SAB4502957), SPARC(HPA002989) MMP-3 (HPA007875); MMP-7 (SAB4501894), MMP-9 (SAB4501896), MMP-11 (SAB4501898), MMP-13 (SAB4501900) and MMP-14 (SAB4501901), by specific antibodies against them. For performing these immunohistochemistry assays, all antibodies were mouse polyclonal antibodies obtained from Sigma Aldrich, used at a 1/1000 concentration. The immunohistochemistry techniques were performed as described in Example 1. The results are summarised in Table 2, that gives the type of marker and the mean percentage of cells with immunostaining for this marker.
(§1) To assess immunostaining, six serial sections were made of each block placed over slides for performing the immunohistochemistry technique for each marker. Therefore, the immunohistochemical assay was performed six times for each marker in each case. In each of the six sections, cell count was performed in 20 fields of high magnification (400×) using a microscope of Olympus brand (model CX31). […]

[2] = test system: human mononuclear blood cells; test: Immunohistochemistry of TGF-beta and NF-kB in mononuclear blood cells; format: cell-based; settings: incubated with PHF; Substance P (1 μM) alone; 48 hours
Excerpt: (§2) Heparinised blood from healthy donors was centrifuged, separating the different components thereof. Red blood cells remain in the bottom of the tube. Above them, there is a small whitish layer formed by white blood cells and above, in the upper part of the tube, blood plasma. The white blood cell layer was distributed in a culture plate of 24 wells, adding to each of them the same concentration of blood plasma supplemented with 1% of antibiotics-antimicotics (Invitrogen). About 1000 cells (PHF) from the skin dermis, obtained as described above, were added to each well.
as §1, with “CX31). In each field, the total cell number and the number of cells with immunostaining were counted, subsequently measuring the percentage of cells with this immunostaining.” for “CX31).”
(§3) The modification of the peritumoural microenvironment by treatment with anti-NK1, NK2 and/or NK3 antibodies has also been analysed determining the involvement of mononuclear and polymorphonuclear blood cells in this tumoural microenvironment. […]

[3] = test system: human polymorphonuclear blood cells; test: Immunohistochemistry of TGF-beta and NF-kB in polymorphonuclear blood cells; format: cell-based; settings: incubated with PHF; Substance P (1 μM) alone; 48 hours
Excerpt: as §2
as §1, with “CX31). In each field, the total cell number and the number of cells with immunostaining were counted, subsequently measuring the percentage of cells with this immunostaining.” for “CX31).”
as §3

[4] = test system: human breast cancer cells; settings: Singh D et al., 2000; Bigioni M. et al., 2005; cited from earlier work
[5] = target: NK1, NK2 and NK3 receptors; test: cell-based or functional assay
[6] = PHF, Substance P (1 μM) alone, 48 hours

UniProt P25103, sequence (P25103 whole entry): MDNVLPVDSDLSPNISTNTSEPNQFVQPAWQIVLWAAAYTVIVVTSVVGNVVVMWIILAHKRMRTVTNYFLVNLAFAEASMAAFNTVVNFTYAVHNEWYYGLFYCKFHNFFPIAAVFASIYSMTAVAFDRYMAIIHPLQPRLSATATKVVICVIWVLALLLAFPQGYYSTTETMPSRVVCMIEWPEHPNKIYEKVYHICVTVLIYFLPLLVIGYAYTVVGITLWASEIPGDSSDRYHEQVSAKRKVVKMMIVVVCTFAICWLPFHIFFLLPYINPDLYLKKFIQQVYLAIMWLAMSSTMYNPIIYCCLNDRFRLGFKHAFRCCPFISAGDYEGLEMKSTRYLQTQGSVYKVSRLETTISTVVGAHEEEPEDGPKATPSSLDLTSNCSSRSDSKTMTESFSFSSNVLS

- % of fibroblast cells with expression for MMP-3; anti-NK1 (1/100) and Substance P (1 µM) (NK1 receptor (human)): 0%
- % of fibroblast cells with expression for MMP-7; anti-NK1 (1/100) and Substance P (1 µM) (NK1 receptor (human)): 0%
- % of fibroblast cells with expression for MMP-9; anti-NK1 (1/100) and Substance P (1 µM) (NK1 receptor (human)): 0%
- % of fibroblast cells with expression for MMP-11; anti-NK1 (1/100) and Substance P (1 µM) (NK1 receptor (human)): 0%
- % of fibroblast cells with expression for MMP-13; anti-NK1 (1/100) and Substance P (1 µM) (NK1 receptor (human)): 0%
- % of fibroblast cells with expression for MMP-14; anti-NK1 (1/100) and Substance P (1 µM) (NK1 receptor (human)): 0%
- % of fibroblast cells with expression for SPARC; anti-NK1 (1/100) and Substance P (1 µM) (NK1 receptor (human)): 0%
- % of fibroblast cells with expression for TGF-alpha; anti-NK1 (1/100) and Substance P (1 µM) (NK1 receptor (human)): 0%
- % of fibroblast cells with expression for TGF-beta 1; anti-NK1 (1/100) and Substance P (1 µM) (NK1 receptor (human)): 0%
- % of fibroblast cells with expression for TGF-beta 2; anti-NK1 (1/100) and Substance P (1 µM) (NK1 receptor (human)): 0%
- % of fibroblast cells with expression for TGF-beta 3; anti-NK1 (1/100) and Substance P (1 µM) (NK1 receptor (human)): 0%
- % of mononuclear cells with expression for NF-kB; anti-NK1 (1/100) and Substance P (1 µM) (NK1 receptor (human)): 0%
- % of mononuclear cells with expression for TGF-beta; anti-NK1 (1/100) and Substance P (1 µM) (NK1 receptor (human)): 0%
- % of polymorphonuclear cells with expression for NF-kB; anti-NK1 (1/100) (NK1 receptor (human)): 0%
- % of polymorphonuclear cells with expression for TGF-beta; anti-NK1 (1/100) (NK1 receptor (human)): 0%
Molecule: anti-NK1 antibody (Sigma-Aldrich, product number S8305)

Molecule: Substance P
- Immunostaining for the markers tested (TGF-alpha, TGF-beta 1-3, SPARC, MMPs) ([1]; PHF cell cultures treated only with substance P): presence of all markers tested
- Percentage of cells with expression for MMP-3 [1, 6]: 33.9%
- Percentage of cells with expression for MMP-7 [1, 6]: 46.2%
- Percentage of cells with expression for MMP-9 [1, 6]: 35.5%
- Percentage of cells with expression for MMP-11 [1, 6]: 7.8%
- Percentage of cells with expression for MMP-13 [1, 6]: 17.1%
- Percentage of cells with expression for MMP-14 [1, 6]: 47.3%
- Percentage of cells with expression for SPARC [1, 6]: 16%
- Percentage of cells with expression for TGF-alpha [1, 6]: 16.5%
- Percentage of cells with expression for TGF-beta 1 [1, 6]: 18.4%
- Percentage of cells with expression for TGF-beta 2 [1, 6]: 24.6%
- Percentage of cells with expression for TGF-beta 3 [1, 6]: 23.1%
- Percentage of mononuclear cells with expression for NF-kB [2]: 25.7%
- Percentage of mononuclear cells with expression for TGF-beta [2]: 16.4%
- Percentage of polymorphonuclear cells with expression for NF-kB [3]: 17.5%
- Percentage of polymorphonuclear cells with expression for TGF-beta [3]: 36.8%

Molecule: CC(=O)NC1(c2ccccc2)CCN(CC[C@H](CN(C)C(=O)c2ccccc2)c2ccc(Cl)c(Cl)c2)CC1 [SR 48968]
- Blocking cell proliferation [4]: efficacy in blocking cell proliferation

- % of fibroblast cells with expression for MMP-3; Substance P (1 µM) [5]: 33.9%
- % of fibroblast cells with expression for MMP-7; Substance P (1 µM) [5]: 46.2%
- % of fibroblast cells with expression for MMP-9; Substance P (1 µM) [5]: 35.5%
- % of fibroblast cells with expression for MMP-11; Substance P (1 µM) [5]: 7.8%
- % of fibroblast cells with expression for MMP-13; Substance P (1 µM) [5]: 17.1%
- % of fibroblast cells with expression for MMP-14; Substance P (1 µM) [5]: 47.3%
- % of fibroblast cells with expression for SPARC; Substance P (1 µM) [5]: 16%
- % of fibroblast cells with expression for TGF-alpha; Substance P (1 µM) [5]: 16.5%
- % of fibroblast cells with expression for TGF-beta 1; Substance P (1 µM) [5]: 18.4%
- % of fibroblast cells with expression for TGF-beta 2; Substance P (1 µM) [5]: 24.6%
- % of fibroblast cells with expression for TGF-beta 3; Substance P (1 µM) [5]: 23.1%
- % of mononuclear cells with expression for NF-kB; Substance P (1 µM) [5]: 25.7%
- % of mononuclear cells with expression for TGF-beta; Substance P (1 µM) [5]: 16.4%
- % of polymorphonuclear cells with expression for NF-kB; Substance P (1 µM) [5]: 17.5%
- % of polymorphonuclear cells with expression for TGF-beta; Substance P (1 µM) [5]: 36.8%
Molecule: RPKPQQFFGLM (peptide, UniProt P20366 58-68, looked up) [Substance P (product no. S6883; Sigma-Aldrich)]
